Consider three proteins from PMC2646509 (Microbiology (Reading, England), 2008).

This series deals with the molecule itself. Put plainly: cross-linking.

Substitutions are numbered along the chain they refer to. Numbers in names are those of the source.

B1: PrfA L140F (natural protein)
chain: MNAQAEEFKKYLETNGIKPKQFHKKELIFNQWDPQEYCIFLYDGITKLTSISENGTIMNLQYYKGAFVIMSGFIDTETSVGYYNLEVISEQATAYVIKINELKELLSKNLTHFFYVFQTLQKQVSYSLAKFNDFSINGKFGSICGQLLILTYVYGKETPDGIKITLDNLTMQELGYSSGIAHSSAVSRIISKLKQEKVIVYKNSCFYVQNLDYLKRYAPKLDEWFYLACPATWGKLN
Regarding B1, the binding result is on record as “binds”.

B2: PrfA Y63C (natural protein)
chain: B1 chain with Y63C, F140L
For B2, the binding result is listed as “binds”.

B3: wild-type PrfA (positive regulatory factor A) (natural protein)
chain: B1 chain with F140L
As a reminder, the stoichiometry N is a count of units in the complex or per binding partner. Take B3: the “stoichiometry N” value is 2.
